Laboratory results published in publication PMC9658050.
Where “and” joins values, the source holds several entries; their conditions need not be identical. Equal values may be shown once.

Experiments:
[1] = target: Full-length SARS-CoV-2 envelope (E) protein (SARS-CoV-2) (UniProt P0DTC4); assay: AUC
[2] = target: His-tagged truncated SARS-CoV-2 E protein (residues 8-65) (SARS-CoV-2) (UniProt P0DTC4); assay: AUC

Full-length SARS-CoV-2 envelope (E) protein (from UniProt P0DTC4 1-75) (natural protein)
Log10 Ka (monomers to pentamer) [1]: 17.4
percent of the sample as pentamers [1]: 80%
stoichiometry N [1]: 3 and 5

His-tagged truncated SARS-CoV-2 E protein (residues 8-65) (from UniProt P0DTC4 8-65) (domain or fragment)
Log10 Ka (monomers to pentamer) [2]: 16
percent of the sample as trimers [2]: 60%
stoichiometry N [2]: 3
